Laboratory results: FireProtDB (doi:10.1021/bi00358a035)
Several values for one entry are separate records, joined by “and”; a condition that tells them apart may be missing. Identical values can stand only once.

B1: Tryptophan synthase alpha chain, P0A877 (parent)
chain: MERYESLFAQLKERKEGAFVPFVTLGDPGIEQSLKIIDTLIEAGADALELGIPFSDPLADGPTIQNATLRAFAAGVTPAQCFEMLALIRQKHPTIPIGLLMYANLVFNKGIDEFYAQCEKVGVDSVLVADVPVEESAPFRQAALRHNVAPIFICPPNADDDLLRQIASYGRGYTYLLSRAGVTGAENRAALPLNHLVAKLKEYNAAPPLQGFGISAPDQVKAAIDAGAAGAISGSAIVKIIEQHINEPEKMLAALKVFVQPMKAATRS

Variants of: B1
Conditions: Escherichia coli (strain K12); pH 7.8; 25 °C; Urea; CD; Potassium phosphate 10 mM; transition: 3; reversible: yes (>90%); structure 1WQ5; whole UniProt chain shown

With MERYESLFAQLKERKEGAFVPLVTLGDPGIEQSLKIIDTLIEAGADALELGIPFSDPLADGPTIQNATLRAFAAGVTPAQCFEMLALIRQKHPTIPIGLLMYANLVFNKGIDEFYAQCEKVGVDSVLVADVPVEESAPFRQAALRHNVAPIFICPPNADDDLLRQIASYGRGYTYLLSRAGVTGAENRAALPLNHLVAKLKEYNAAPPLQGFGISAPDQVKAAIDAGAAGAISGSAIVKIIEQHINEPEKMLAALKVFVQPMKAATRS [F22L] as the variant, how does the denaturant m value read?
Its denaturant m value is 3.1 kcal/mol/M and 1.2 kcal/mol/M.

And the “denaturant midpoint (higher = more stable)” value (“denaturant midpoint” below)?
The value was 2.54 M and 3.62 M.

And the unfolding free energy?
Its unfolding free energy is 7.9 kcal/mol and 4.2 kcal/mol.

For MERYESLFAQLKERKEGAFVPFVTLGDPGIEQSLKIIDTLIEAGADALELGIPFSDPLADGPTIQNATLRAFAAGVTPAQCFEMLALIRQKHPTIPIGLLMYANLVFNKGIDEFYAQCEKVGVDSVLVADVPVEESAPFRQAALRHNVAPIFICPPNADDDLLRQIASYGRGYTYLLSRAGVTGAENRAALPLNHLVAKLKEYNAAPPLQEFGISAPDQVKAAIDAGAAGAISGSAIVKIIEQHINEPEKMLAALKVFVQPMKAATRS [G211E], which denaturant m value is on record?
The denaturant m value was 3 kcal/mol/M and 1.5 kcal/mol/M.

What about the “denaturant midpoint” value of the same variant?
The value was 2.73 M and 3.72 M.

What about the unfolding free energy of the same variant?
The unfolding free energy was 8.1 kcal/mol and 5.4 kcal/mol.

What does the source list for MERYESLFAQLKERKEGAFVPFVTLGDPGIEQSLKIIDTLIEAGADALELGIPFSDPLADGPTIQNATLRAFAAGVTPAQCFEMLALIRQKHPTIPIGLLMYANLVFNKGIDEFYAQCEKVGVDSVLVADVPVEESAPFRQAALRHNVAPIFICPPNADDDLLRQIASYGRGYTYLLSRAGVTGAENRAALPLNHLVAKLKEYNAAPPLQGFGISAPDQVKAAIDAGAAGAISKSAIVKIIEQHINEPEKMLAALKVFVQPMKAATRS [G234K]?
denaturant m value: 2.3 kcal/mol/M and 1.2 kcal/mol/M; denaturant midpoint (higher = more stable): 2.65 M and 3.81 M; unfolding free energy: 6.2 kcal/mol and 4.7 kcal/mol

With MERYESLFAQLKERKEGAFVPFVTLGDPGIEQSLKIIDTLIEAGADALELGIPFSDPLADGPTIQNATLRAFAAGVTPAQCFEMLALIRQKHPTIPIGLLMYANLVFNKGIDEFYAQCEKVGVDSVLVADVPVEESAPFRQAALRHNVAPIFICPPNADDDLLRQIASYGRGYTYLLSRAGVTGAENRAALPLNHLVAKLKEYNAAPPLQGFGISAPDQVKAAIDAGAAGAISDSAIVKIIEQHINEPEKMLAALKVFVQPMKAATRS [G234D] as the variant, how does the “ddG of mutation (higher = less stable)” value read?
Its value is -1.4 kcal/mol and -2 kcal/mol.

And the denaturant m value?
The denaturant m value was 2.6 kcal/mol/M and 1.8 kcal/mol/M.

What about the “denaturant midpoint” value of the same variant?
The value was 2.78 M and 3.99 M.

What about the unfolding free energy of the same variant?
Its unfolding free energy is 7.1 kcal/mol and 7 kcal/mol.

For MERYESLFAQLKERKEGAFVPFVTLGDPGIEQSLKIIDTLIEAGADALMLGIPFSDPLADGPTIQNATLRAFAAGVTPAQCFEMLALIRQKHPTIPIGLLMYANLVFNKGIDEFYAQCEKVGVDSVLVADVPVEESAPFRQAALRHNVAPIFICPPNADDDLLRQIASYGRGYTYLLSRAGVTGAENRAALPLNHLVAKLKEYNAAPPLQGFGISAPDQVKAAIDAGAAGAISGSAIVKIIEQHINEPEKMLAALKVFVQPMKAATRS [E49M], which “ddG of mutation (higher = less stable)” value is on record?
The value was -3.7 kcal/mol and -2 kcal/mol.

What about the denaturant m value of the same variant?
The denaturant m value was 2.8 kcal/mol/M and 1.4 kcal/mol/M.

What about the “denaturant midpoint” value of the same variant?
Its value is 3.33 M and 4.92 M.

And the unfolding free energy?
Its unfolding free energy is 9.4 kcal/mol and 7 kcal/mol.
